Like-named read-outs stand apart in the source and are kept apart here.
Key:
human C-KIT-Fc [1] = molecular target: T1, human C-KIT-Fc (human, UniProt P10721 26-524); test: HTRF competition vs Tb-h37M IgG1
T1 construct: also called biotinylated human C-KIT-Fc; not shown: Fc part not described

[2] = molecular target: T2, cynomolgus monkey C-KIT-Fc (cynomolgus monkey); test: HTRF competition vs Tb-h37M IgG1
T2 construct: also called cyno C-KIT-Fc

human C-KIT-Fc [3] = molecular target: T1, human C-KIT-Fc; test: HTRF competition vs Tb-h37M IgG1; remark: listed apart in the source
[4] = molecular target: T2, cynomolgus monkey C-KIT-Fc; test: HTRF competition vs Tb-h37M IgG1; remark: listed apart in the source
[5] = molecular target: T3, human C-KIT, full length, on cells (human, UniProt P10721 26-976); test: flow cytometry, C-KIT-transfected CHO-K1 cells, IgG1 format
T3 construct: full-length cDNA stably transfected in CHO-K1; also used here for endogenous C-KIT of TF-1 cells; also called human C-KIT+ CHO-K1 cells; C-KIT on TF-1 cells

[6] = molecular target: T4, cynomolgus monkey C-KIT, full length, on CHO-K1 cells (cynomolgus monkey); test: as above
T4 construct: whole, on cells; also called cyno C-KIT+ CHO-K1 cells

human C-KIT-Fc [7] = molecular target: T1, human C-KIT-Fc; test: direct ELISA;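 further: Plate-coated C-KIT-Fc (1 µg/ml) probed with antibodies for 1 hr, bound IgG detected via anti-human kappa-HRP and TMB, absorbance measured at 450 nm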
[8] = molecular target: T3, human C-KIT, full length, on cells; test: flow cytometry, C-KIT-transfected CHO-K1 cells, IgG1 format; remark: listed apart in the source

B1: F-C5 (antibody, IgG1, V domains shown)
VH: QVQLVQSGAEVKKPGASVKVSCKASGYTFTDYYMNWVRQAPGQGLEWMGRIYPGSGNTYYAQKFQGRVTMTRDTSTSTVYMELSSLRSEDTAVYYCARGVYYFDEWGQGTLVTVSS
VL: DIQMTQSPSSLSASVGDRVTITCRASQGVRTNLAWFQQKPGKAPKSLIYAASSRQSGVPSRFSGSGSGTDFTLTISSLQPEDFATYYCQQYNSYPRTFGGGTKVEIK
notes: IgG1; also called C-KIT-F-C5; F-05
With B1 the IC50 (human C-KIT-Fc [1]) was 0.031 µg/mL and the IC50 [2] was 0.079 µg/mL.

B2: C-A7 (antibody, IgG1, V domains shown)
VH: QVQLVQSGAEVKKPGASVKVSCKASGYTFTDYYMNWVRQAPGQGLEWIGRIYPGSGNTYYAQKFQGRVTMTRDTSTSTVYMELSSLRSEDTAVYYCARGVYYFDSWGQGTLVTVSS
VL: DIQMTQSPSSLSASVGDRVTITCRASQGVRNNVAWFQQKPGKAPKSLIYYASSLQSGVPSRFSGSGSGTDFTLTISSLQPEDFATYYCQQYNSYPRTFGGGTKVEIK
notes: IgG1; also called C-KIT-C-A7
B2 gave an IC50 (human C-KIT-Fc [1]) of 0.037 µg/mL and an IC50 [2] of 0.081 µg/mL.

B3: C-B12 (antibody, IgG1, V domains shown)
VH: QVQLVQSGAEVKKPGASVKVSCKASGYTFTDYYMNWVRQAPGQGLEWMGRIYPGSGNTYYAQKFQGRVTMTRDTSTSTVYMELSSLRSEDTAVYYCARGVYEFDYWGQGTLVTVSS
VL: DIQMTQSPSSLSASVGDRVTITCRASQGVRNNLAWFQQKPGKAPKSLIYAASYRQSGVPSRFSGSGSGTDFTLTISSLQPEDFATYYCQQYNSYPRTFGGGTKVEIK
notes: IgG1; also called C-KIT-C-B12
With B3 the IC50 (human C-KIT-Fc [1]) was 0.066 µg/mL and the IC50 [2] was 0.166 µg/mL.

B4: D-A10 (antibody, IgG1, V domains shown)
VH: QVQLVQSGAEVKKPGASVKVSCKASGYTFTDYYMNWVRQAPGQGLEWMGRIYPGSGNTYYAQKFQGRVTMTRDTSTSTVYMELSSLRSEDTAVYYCARGVYYFDTWGQGTLVTVSS
VL: DIQMTQSPSSLSASVGDRVTITCRASQGVRTNLAWFQQKPGKAPKSLIYAASSRQSGVPSRFSGSGSGTDFTLTISSLQPEDFATYYCQQYNSYPRTFGGGTKVEIK
notes: IgG1; also called C-KIT-D-A10
In the case of B4, the IC50 (human C-KIT-Fc [1]) is reported as 0.027 µg/mL and the IC50 [2] is reported as 0.059 µg/mL.

B5: E-E10 (antibody, IgG1, V domains shown)
VH: QVQLVQSGAEVKKPGASVKVSCKASGYTFTDYYMNWVRQAPGQGLEWMGRIYPGSGNTYYAQKFQGRVTMTRDTSTSTVYMELSSLRSEDTAVYYCARGVWYFDYWGQGTLVTVSS
VL: DIQMTQSPSSLSASVGDRVTITCRASQGVRTNVAWFQQKPGKAPKSLIYSASSLQSGVPSRFSGSGSGTDFTLTISSLQPEDFATYYCQQYNSYPRTFGGGTKVEIK
notes: IgG1; also called C-KIT-E-E10
B5 showed an IC50 (human C-KIT-Fc [1]) of 0.031 µg/mL and an IC50 [2] of 0.097 µg/mL.

B6: F-F2 (antibody, IgG1, V domains shown)
VH: QVQLVQSGAEVKKPGASVKVSCKASGYTFTDYYMNWVRQAPGQGLEWMGRIYPGSGNTYYAQKFQGRVTMTRDTSTSTVYMELSSLRSEDTAVYYCARGVYYQDYWGQGTLVTVSS
VL: DIQMTQSPSSLSASVGDRVTITCRASQGVRTNVAWFQQKPGKAPKSLIYAASSRQSGVPSRFSGSGSGTDFTLTISSLQPEDFATYYCQQYNSYPRTFGGGTKVEIK
notes: IgG1; also called C-KIT-F-F2
In the case of B6, the IC50 (human C-KIT-Fc [1]) is reported as 0.046 µg/mL and the IC50 [2] is reported as 0.121 µg/mL.

B7: MH5.1 (antibody, IgG1, V domains shown)
VH: QVQLVQSGAEVKKPGASVKVSCKASGYTFTNYYMNWVRQAPGQGLEWMGRIYPGTGNTYYAQKFQGRVTMTRDTSTSTVYMELSSLRSEDTAVYYCARGVWYYDYWGQGTLVTVSS
VL: DIQMTQSPSSLSASVGDRVTITCRASQGIRTNLAWFQQKPGKAPKSLIYAASSLQSGVPSRFSGSGSGTDFTLTISSLQPEDFATYYCQQYANYPRTFGGGTKVEIK
notes: IgG1; also called C-KIT-MH5.1
In the case of B7, the IC50 (human C-KIT-Fc [3]) is reported as 0.684 µg/mL, the IC50 [4] is reported as 0.633 µg/mL and the “EC50 (read off the curve)” value [5] is reported as about 0.2 µg/mL. The “EC50 (read off the curve)” value [6] was about 0.2 µg/mL.

B8: MH5.2 (antibody, IgG1, V domains shown)
VH: QVQLVQSGAEVKKPGASVKVSCKASGYTFTDFYMNWVRQAPGQGLEWMGRIYPGTGNTYYAQKFQGRVTMTRDTSTSTVYMELSSLRSEDTAVYYCARGVWYYDYWGQGTLVTVSS
VL: DIQMTQSPSSLSASVGDRVTITCRASQGIRTNLAWFQQKPGKAPKSLIYAASSLQSGVPSRFSGSGSGTDFTLTISSLQPEDFATYYCQQYANYPRTFGGGTKVEIK
notes: IgG1; also called C-KIT-MH5.2
B8 was tested, and the IC50 (human C-KIT-Fc [3]) was 0.272 µg/mL, the IC50 [4] was 0.254 µg/mL and the “EC50 (read off the curve)” value [5] was about 0.2 µg/mL. For the same binder, the “EC50 (read off the curve)” value [6] was about 0.2 µg/mL.

B9: MH5.23 (antibody, IgG1, V domains shown)
VH: QVQLVQSGAEVKKPGASVKVSCKASGYTFTDFYMNWVRQAPGQGLEWMGRIYPASGNTYYAQKFQGRVTMTRDTSTSTVYMELSSLRSEDTAVYYCARGVWYFDSWGQGTLVTVSS
VL: DIQMTQSPSSLSASVGDRVTITCRASQGIRTNLAWFQQKPGKAPKSLIYAASSLQSGVPSRFSGSGSGTDFTLTISSLQPEDFATYYCQQYANYPRTFGGGTKVEIK
notes: IgG1; also called C-KIT-MH5.23
In the case of B9, the IC50 (human C-KIT-Fc [3]) is reported as 2.02 µg/mL, the IC50 [4] is reported as 3.26 µg/mL and the “EC50 (read off the curve)” value [5] is reported as about 0.2 µg/mL.

B10: MH5.24 (antibody, IgG1, V domains shown)
VH: QVQLVQSGAEVKKPGASVKVSCKASGYTFTDFYMNWVRQAPGQGLEWMGRIYPASGNTYYAQKFQGRVTMTRDTSTSTVYMELSSLRSEDTAVYYCARGVWYFDTWGQGTLVTVSS
VL: DIQMTQSPSSLSASVGDRVTITCRASQGIRTNLAWFQQKPGKAPKSLIYAASSLQSGVPSRFSGSGSGTDFTLTISSLQPEDFATYYCQQYANYPRTFGGGTKVEIK
notes: IgG1; also called C-KIT-MH5.24
B10 was tested, and the IC50 (human C-KIT-Fc [3]) was 2.2 µg/mL, the IC50 [4] was 2.74 µg/mL and the “EC50 (read off the curve)” value [5] was about 0.2 µg/mL. For the same binder, the “EC50 (read off the curve)” value [6] was about 0.2 µg/mL.

B11: MH5.32 (antibody, IgG1, V domains shown)
VH: QVQLVQSGAEVKKPGASVKVSCKASGYTFTNYYMNWVRQAPGQGLEWMGRIYPGAGNTYYAQKFQGRVTMTRDTSTSTVYMELSSLRSEDTAVYYCARGVWYFDEWGQGTLVTVSS
VL: DIQMTQSPSSLSASVGDRVTITCRASQGIRTNLAWFQQKPGKAPKSLIYAASSLQSGVPSRFSGSGSGTDFTLTISSLQPEDFATYYCQQYANYPRTFGGGTKVEIK
notes: IgG1
B11: binds (human C-KIT-Fc [7]).

B12: MH5.36 (antibody, IgG1, V domains shown)
VH: QVQLVQSGAEVKKPGASVKVSCKASGYTFTNYYMNWVRQAPGQGLEWMGRIYPASGNTYYAQKFQGRVTMTRDTSTSTVYMELSSLRSEDTAVYYCARGVWYFDEWGQGTLVTVSS
VL: DIQMTQSPSSLSASVGDRVTITCRASQGIRTNLAWFQQKPGKAPKSLIYAASSLQSGVPSRFSGSGSGTDFTLTISSLQPEDFATYYCQQYANYPRTFGGGTKVEIK
notes: IgG1
B12: binds (human C-KIT-Fc [7]).

B13: MH6 (antibody, IgG1, V domains shown)
VH: QVQLVQSGAEVKKPGASVKVSCKASGYTFTDYYMNWVRQAPGQGLEWMGRIYPGSGNTYYAQKFQGRVTMTRDTSTSTVYMELSSLRSEDTAVYYCARGVYYYDYWGQGTLVTVSS
VL: DIQMTQSPSSLSASVGDRVTITCRASQGIRTNLAWFQQKPGKAPKSLIYSASSLQSGVPSRFSGSGSGTDFTLTISSLQPEDFATYYCQQYNSYPKTFGGGTKVEIK
notes: IgG1
B13: binds (human C-KIT-Fc [7]); binds [8].

B14: MH11 (antibody, IgG1, V domains shown)
VH: QVQLVQSGAEVKKPGASVKVSCKASGYTFTDYYMNWVRQAPGQGLEWMGRIYPGSGNTYYAQKFQGRVTMTRDTSTSTVYMELSSLRSEDTAVYYCARGVYYYDYWGQGTLVTVSS
VL: DIQMTQSPSSLSASVGDRVTITCRASQGIRTNLAWFQQKPGKAPKSLIYAASSLQSGVPSRFSGSGSGTDFTLTISSLQPEDFATYYCQQYNAYPRTFGGGTKVEIK
notes: IgG1; also called C-KIT-MH11
For B14, the IC50 (human C-KIT-Fc [1]) was 0.051 µg/mL and the IC50 [2] was 0.101 µg/mL.

B15: TTP2 (antibody, IgG1, V domains shown)
VH: QVQLVQSGAEVKKPGASVKVSCKASGYTFTDYYMNWVRQAPGQGLEWMGRIYPGSGNTYYAQKFQGRVTMTRDTSTSTVYMELSSLRSEDTAVYYCARGVYYYDYWGQGTLVTVSS
VL: DIQMTQSPSSLSASVGDRVTITCRASQGIRTNLAWFQQKPGKAPKSLIYAASSLQSGVPSRFSGSGSGTDFTLTISSLQPEDFATYYCQQYNSYPHTFGGGTKVEIK
notes: IgG1
B15: binds (human C-KIT-Fc [7]); binds [8].

B16: TTP3 (antibody, IgG1, V domains shown)
VH: QVQLVQSGAEVKKPGASVKVSCKASGYTFTDYYMNWVRQAPGQGLEWMGRIYPGSGNTYYAQKFQGRVTMTRDTSTSTVYMELSSLRSEDTAVYYCARGVYYLDYWGQGTLVTVSS
VL: DIQMTQSPSSLSASVGDRVTITCRASQGVRTNLAWFQQKPGKAPKSLIYSASSLQSGVPSRFSGSGSGTDFTLTISSLQPEDFATYYCQQYNAYPKTFGGGTKVEIK
notes: IgG1
B16: binds (human C-KIT-Fc [7]); binds [8].

B17: TTP4 (antibody, IgG1, V domains shown)
VH: QVQLVQSGAEVKKPGASVKVSCKASGYTFTDYYMNWVRQAPGQGLEWMGRIYPGSGNTYYAQKFQGRVTMTRDTSTSTVYMELSSLRSEDTAVYYCARGVYYYDYWGQGTLVTVSS
VL: DIQMTQSPSSLSASVGDRVTITCRASQGVRTNLAWFQQKPGKAPKSLIYSASSLQSGVPSRFSGSGSGTDFTLTISSLQPEDFATYYCQQYNAYPHTFGGGTKVEIK
notes: IgG1
B17: binds (human C-KIT-Fc [7]); binds [8].

B18: TTP6 (antibody, IgG1, V domains shown)
VH: QVQLVQSGAEVKKPGASVKVSCKASGYTFTDYYMNWVRQAPGQGLEWMGRIYPGSGNTYYAQKFQGRVTMTRDTSTSTVYMELSSLRSEDTAVYYCARGVYYYDYWGQGTLVTVSS
VL: DIQMTQSPSSLSASVGDRVTITCRASQGVRTNLAWFQQKPGKAPKSLIYAASSLQSGVPSRFSGSGSGTDFTLTISSLQPEDFATYYCQQYNAYPHTFGGGTKVEIK
notes: IgG1
B18: binds (human C-KIT-Fc [7]); binds [8].

Source: patent US20200283521A1 (GRANULAR THERAPEUTICS, published 2020)
